Results published in patent publication US9371519B2, “Complex type sugar chain hydrolase” (National Institute of Advanced Industrial Science and …, priority 2011, dated 2016).

B1: Endo-Cp: endo-β-N-acetylglucosaminidase from Candida parapolymorpha DL-1 ATCC26012, amino acid sequence SEQ ID NO. 5, 745 amino acids (protein, listed as Candida parapolymorpha)
chain: MPRNTAKHSSLPQTNLPLSSLESSFFDSLDELANWERRIHEKSFELDELNKPTEKLAHYTRARQQSTSEDVKLLVCHDLKGGYQVNEDEDPLGYFPHPDGQHYFLQYPQLVDKFVYFSHHRVSIPPVSWINVCHRNAIKCLGTVIFEGNTYRDFEEADKLLTKQDGEYVFVRCLVALVEYFQFDGYLFNIETRFSNTRIASLLEPFLEQLRAELHVRNPSTELIWYDSYIYPENRVLYKNGVTEANYNFFSCCDSFFTNYWWNVKHLQDNIKNVGVLGSRLKVYAGYDVWGRGTMIGKGGYDSALACQMIKKYRSNVALFAPAWTYEYLARKDFTQNDTRFWIGLFDGESSMATTFKPYSSPLYKINDSNFVFYTNFGSGEGCAFYECGEKVYRDNWVNGSLQMEIPYAIHTRNKNGIQWTLSKEDSFHGGSCVEIKYNEVVDDKGYQVFNNQTINSFSLFSFVQDCSFPTVNVKLTYKLNHKTKSFFKLKIGYYIERRYRTVQKVRSGCLVVPLLSTNDQWFTIEEPFHVSLQNSHEFIVLDSATIFYEETEDPFMRAHVVEDQSTSSVIDNEEYEKLMNSEIYFDDEDEDWILVPSDISMESTDNGGRENHTWKVISNQIRKKHPKSHPSTSPVLKLGELAIINANDYPSDSFFKLMPVNSIDVRRWEGKILLIWKTNQDSVLYHLIFVDDVFQGISLVSKFVFEDQAVDEKSFKTKSGGSTKVRIDTVNRLGILVKGTDM
B2: Endo-Om: endo-β-N-acetylglucosaminidase from methylotrophic yeast Ogataea minuta IFO10746, amino acid sequence SEQ ID NO. 1, 772 amino acids (protein, listed as Ogataea minuta)
chain: MAQSQLLGGAVRPVFFDKLEELRRWHTQSANLSRESELDSLNVATEPFSSYERAQTGSGSRSSEPVPGDKEDPPIKLMVCHDFKGGYQDYEDAQPLGYFPHPTGSRYFLQYPQLIDQFVYFSHHRVTVPPVNWINFCHRNGIKCFGTVIFEGNASKDFEELDRLVSRDEKGDFVFVDALIKLAAHYGFDGYLLNIETTFSNTKIAADLEPFAEQLKSGLHCLDSKNELIWYDSYVFPANKVSYTNGVTESNYNFFSLSDAFFSNYWWNIKNLQENIKNVGVLGVQKKIYVGYDVWGRGTLVGKGGFDSSLACKMIAKFKSNVALFAPAWTYESLGPKDFNQNDARFWIGLFENESSISSTVPPHSSAVYKINESSFIFYTNFSSGEGNRFFSKGSEVYRKNWVNGSLQFDLPIDLHRKDKNGLQWALDKSDAFHGGACLEIKYSEIKDENGYQIFNNQMVSDFTLFNFTKECHFPTVNVKVTYKLNHKTKSTFKIKIKYIIERRFRSVQTVRTGYLTIPLLSTSGKWFTVEESFQINLQTSHEYIVLESAHVTYDEDRSADSFFRSYIVEDSAITSVIDNEEYEKLINSEIYNDDEDEDWILVPSDVSISSSESQSNDSKTQYLGRKLFGNKSTPKTRTLEGTAPLLRIGEFAIISANNYPSSNFLAVTSVKSIESSRLEGDSLVLLNWQVGEGHQKGVCYYIIYVNGAVVGLSVAPKFIYQDTELASENSASARSNYKKSGLGSSSDRKSKVRVDSVDKLGNVFTGSEVWV

Assay: Enzyme activity measurement with NGA2-Asn-Fmoc by HPLC (specific activity, Km, Vmax)
Format: biochemical
Details: for Specific activity: 1 mM NGA2-Asn-Fmoc as substrate
Description: The enzyme activity was measured as follows. A reaction solution (total volume: 10 μl) containing 100 mM of a sodium acetate buffer (pH 5.3) at the final concentration, 0.5 M NaCl, 10 μM of a Fmoc-labeled biantennary complex type sugar chain (NGA2-Asn-Fmoc), […], and heated at 95° C. for 5 minutes, thereby stopping the enzyme reaction. The reaction solution was subjected to HPLC, and the enzymatic activity was calculated from the peak area ratio between the NGA2-Asn-Fmoc as the substrate and its hydrolysate. The column was Asahipak NH2P-50 4E (4.6.250 mm, Shodex), and the solvents were acetonitrile (solvent A) and 200 mM of TEAA (pH 7.0, GLEN RESEARCH: solvent B). Isocratic elution was carried out at a flow rate of 1.0 ml/min, and the solvent B: 43%, and detection was carried out using a fluorescence detector (excitation wavelength 265 nm, and fluorescence wavelength 315 nm). The activity hydrolyzing […] of NGA2-Asn-Fmoc in 1 minute under the above-described reaction conditions was defined as 1 Unit of the enzymatic activity of Endo-Om.
The properties of Endo-Om were studied using a purified enzyme solution. According to the method described in Example 4, the Endo-Om crude enzyme solution prepared from 100 ml culture was substituted with an equilibration buffer (20 mM sodium phosphate buffer (pH 7.4), 0.5 M NaCl, 0.5 mM PMSF, 50 mM imidazole) by dialysis. The Endo-Om crude enzyme solution after dialysis was subjected to a HisTrap HP column (GE Healthcare), washed with the equilibration buffer, and eluted stepwise by an equilibration buffer containing 50 mM, 100 mM, and 200 mM of imidazole, thereby eluting the protein. The fraction containing Endo-Om eluted from the column was subjected to ultrafiltration concentration using Amicon Ultra (50,000 NMWL, Millipore), further dialyzed with 20 mM of sodium phosphate buffer (pH 7.4) and 0.5 M of NaCl, and glycerol was added to make the final concentration 10%, thereby making an Endo-Om purified enzyme solution. According to the method described in Example 4, the activity of the Endo-Om purified enzyme solution when the substrate concentration was 1 mM was measured, and the specific activity was calculated. In addition, activity measurement was carried out using NGA2-Asn-Fmoc at different concentrations as the substrates, and Km and Vmax were calculated. For comparison, the specific activity, Km, and Vmax of the commercially available Endo-M were calculated by the same method. The optimal pH of Endo-M is 6.0 (Non Patent Literature 6), so that the pH of the sodium acetate buffer was made 6.0 when measuring the activity of Endo-M.
The enzyme activity was measured as follows. A reaction solution (total volume: 10 μl) containing 100 mM of a sodium acetate buffer (pH 5.3) at the final concentration, 0.5 M NaCl, 10 μM of a Fmoc-labeled biantennary complex type sugar chain (NGA2-Asn-Fmoc), and Endo-Cp was incubated at 30° C. for 3 hours, and heated at 95° C. for 5 minutes, thereby stopping the enzyme reaction. The reaction solution was subjected to HPLC, and the enzymatic activity was calculated from the peak area ratio between the NGA2-Asn-Fmoc as the substrate and its hydrolysate. […] Isocratic elution was carried out at a flow rate of 1.0 ml/min, and the solvent B: 43%, and detection was carried out using a fluorescence detector (excitation wavelength 265 nm, and fluorescence wavelength 315 nm). […]
The enzyme activity was measured as follows. […]

Molecule | Specific activity of partially purified enzyme solution (10 μM NGA2-Asn-Fmoc as substrate, pH 5.3, 30° C.) [μUnit/mg] | Specific activity (purified Endo-Om) [µmol/min/mg] | Specific activity (purified Endo-Om (pH 5.3), commercially available Endo-M (pH 6.0)) [µmol/min/mg] | Km relative to the Km of Endo-M (NGA2-Asn-Fmoc) [times] | Vmax relative to the Vmax of Endo-M (NGA2-Asn-Fmoc) [times]
B1 | 120 | – | – | – | –
B2 | – | 0.8 | 0.80 | 31 | 55
